Earlier results as cited in article PMC5133818.

Target: cytochrome c (Homo sapiens) (UniProt P99999)
Test: SPR

Sequence of UniProt P99999 (P99999 2-105): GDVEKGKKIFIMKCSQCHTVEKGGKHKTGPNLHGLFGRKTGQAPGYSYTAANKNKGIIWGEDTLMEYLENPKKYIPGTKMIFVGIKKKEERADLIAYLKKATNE

Kd: 200 µM
Substance: neuroglobin (from UniProt Q9NPG2)
